Test results: article doi:10.1101/2022.11.07.515396, “Functional and structural asymmetry suggest a unifying principle for catalysis in integral membrane-bound pyrophosphatases” (bioRxiv, 2022)

B1: K+-independent H+-pumping membrane-bound pyrophosphatase from Pyrobaculum aerophilum (PaPPase), wild type (enzyme, UniProt Q8ZWI8 1-721, looked up)
chain: MNMISYALLGVILGISGVIYAVYLAVWVLRQDPGNEKMRFISQAIATGARAYLFRQYRTLAVLLVILAVLILVAIDMPRRTFGLTALAFIVGALGSMLAGYLGMYVTTRSASRVAQAAATGGMGKALLVSWRAGAVMGLSLASIALLLISGFYLVFRSVLPDDWAVPLVALGFGASLVTLFMRVGGGIYTKAADLGADLVGKVEAGIPEDDPRNPGVIADNVGDNVGDVAGMAADVYESYIVTVTAAIFLAAILGLPTQFIEAIILFAALALVATFAGVNLLKTTGVKHPLSSISLAIYATIGLSVVLFFIGAFTLGLDSTKALALAATTSLGAVIAPLIVKITDYYTSYNYGPVRKIAEQAKISPATVIITGYGVGLMSAIPVIAVIVAVLGISYMIGYYTVPVSGFGELSKYLAGIFGTAMASVGLLVVAGIIITADSYGPVSDNAGGVVEMAGLPDEVREITDVLDSVGNTTKATTKGYAIASAALAALVLFIALIFEIVYSASKILGKGIVDMISESLSGLQLINANVLIGAFLGVALVYFFSSRTLEAVGRTAMEIVEEIRRQFREKPGILEWKEQPDYARVVDIATRRALGEFLIPGLAAIVLPLITGLLLGWNALAGLIMGAIVAGVPRALLMANAGGAWDNAKKYIEIQGLKKTEMHKAAVIGDTVGDPMKDTVGPSLNPLIKVLNTLSVVFTYVIVSTNIALGIWPSGLLPF
notes: also called PaPPase:Mg5IDP; K+-independent H+-PPase; source: S. cerevisiae BJ1991, purified (hot-solve in DDM, nickel-NTA, protein in DM for crystals)
B2: K+-dependent Na+-pumping membrane-bound pyrophosphatase from Thermotoga maritima (TmPPase), wild type (enzyme, UniProt Q9S5X0 1-726, looked up)
chain: MYVAALFFLIPLVALGFAAANFAAVVRKPEGTERMKEISSYIRSGADSFLAHETKAIFKVAIVIAILLMIFTTWQTGVAFLLGAVMSASAGIVGMKMATRANVRVAEAARTTKKIGPALKVAYQGGSVMGLSVGGFALLGLVLVYLIFGKWMGQVDNLNIYTNWLGINFVPFAMTVSGYALGCSIIAMFDRVGGGVYTKAADMAADLVGKTELNLPEDDPRNPATIADNVGDNVGDVAGLGADLLESFVGAIVSSIILASYMFPIYVQKIGENLVHQVPKETIQALISYPIFFALVGLGCSMLGILYVIVKKPSDNPQRELNISLWTSALLTVVLTAFLTYFYLKDLQGLDVVGFRFGAISPWFSAIIGIFSGILIGFWAEYYTSYRYKPTQFLSKSSIEGTGMVISNGLSLGMKSVFPPTLTLVLGILFADYFAGLYGVAIAALGMLSFVATSVSVDSYGPIADNAGGISEMCELDPEVRKITDHLDAVGNTTAAIGKGFAIGSAIFAALSLFASYMFSQISPSDIGKPPSLVLLLNMLDARVIAGALLGAAITYYFSGYLISAVTKAAMKMVDEIRRQAREIPGLLEGKAKPDYNRCIEITSDNALKQMGYPAFIAILTPLVTGFLLGAEFVGGVLIGTVLSGAMLAILTANSGGAWDNAKKYLEAGNLEGYGKGSEPHKALVIGDTVGDPLKDTVGPSLDILIKIMSVVSVIAVSIFKHVHLF
notes: also called K+-dependent Na+-PPase; TmPPase:Mg2; source: S. cerevisiae BJ1991, purified (hot-solve, nickel-NTA, in OGNG)

Tests used:
[1] = molecular target: the molecule itself; test: crystal structure; PaPPase in DM with 2 mM IDP, vapour diffusion, 30-33% v/v PEG 400, 0.1 M MES pH 6.5, 0.05 M LiSO4, 0.05 M NaCl, 20 °C; space group P21; eight datasets combined; molecular replacement with PDB 5LZQ
[2] = molecular target: the molecule itself; test: crystal structure; TmPPase in OGNG with 0.4 mM K4PPi, vapour diffusion, 24-26% v/v PEG 400, 50-60 mM Tris-HCl pH 8.5, 2-3 mM MgCl2, 175 mM KCl, 2 mM DTT, 20 °C; time-resolved cryo-trapping after soaking in Na+ trigger solution (0-3600 seconds); molecular replacement with PDB 4AV3

Protein | stoichiometry N [1] | stoichiometry N [2]
B1 | 2 | 
B2 |  | 2
